Laboratory results reported in the nanobody polyreactivity screen of Harvey et al. (2022).

Assay: yeast display, Sf9 membrane polyspecificity reagent, FACS + sequencing; frameworks hold sequencing errors
Method in brief: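 Nanobodies from a synthetic yeast display library (Saccharomyces cerevisiae BJ5465), induced 36–48 hours with galactose, were stained 1 hour at 4 °C with 10% biotinylated, detergent-solubilized Sf9 membrane reagent, enriched on streptavidin microbeads, then FACS-sorted. Anti-HA (expression) and streptavidin (reagent binding) fluorescence set low and high (top ~1%) gates. Polyreactivity labels come from the gate of origin. Genes were colony-PCR amplified, MiSeq 2 × 250 sequenced and filtered by CDR length.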

Sequence | polyreactivity (PSR sort gate)
QVQLVESGGGLVQAGGSLRLSCAASGYTFYYNAMGWYIQAPGKERELVARISRSGGSTYADSVKGRFTISRDNAKNTVYLQMNSLKPEDTAVYYCNADAYGTPEFTSYAVRYDYWGQGTQVTVSS | low polyreactivity
QVQLVESGGGLVQAGGSLRLSCAASGFIFYGYVMGWYRQAPGKERELVAAITYNGGRTYYADSVKGRFTISRDNAKNTVYLQMNSLKPEDTAVYYCAALGYDGDYDYWGQGTQVTVSS | low polyreactivity
QVQLVESGGGLVQAGGSLRLSCAASGIIFYWYAMGWYRQAPGKERELVAAITRVGSTNYADSVKGRFTISRDNAKNTVYLQMNSLKPEDTAVYYCAADLWQRHYLVGFGIRYDYWGQGTQVTVSS | low polyreactivity
QVQLVESGGGLVQAGGSLRLSCAASGFIIQGNAMGWYRQAPGKERELVAAISSCVSTYYADSVKGRFTISRDNAKNTVYLQMNSLKPEDTAVYYCNAGFPLSLWLGDYWGQGTHVTVSS | low polyreactivity
QVQLVESGAGLVQAGGSLRLSCAASGSTFYGYGMGWYRQAPGKERELVAAITGSGDTTYYADSVKGRFTISRDNAKNTVYLQMNSLKPEDTAVYYCNARWHAEYDYWGQGTQVTVSS | low polyreactivity
QVQLVESGGGLVQAGGRLRLSCAASGSTFLNYAMGWYRQAPGKQRELVSSIDSSDGRTYYADSVKGRFTISRDNAKNTVYLQMNSLKPEDTEVYYCAKDSYAVELRPYSKLSSRADGYWGQGTQVTVSS | low polyreactivity
QVQLVESGGGLVQAGGSLRLSCAASGITFYGNAMGWYRQAPGNERELVAAITFSGGITYYADSVKGRFTISRDNAKNTVYLQMNSLKPEDTAVYDCATDPIGGWTRPQRYGDDYWGQGTQVTVSS | low polyreactivity
QVQLVESGGGLVQAGGSLRLSCAASGSTSGRNVMGWYRQSPGKERELVAAISSRGGSTYYADSVKGRFTISRDNEKNTVYLQMNSLKPEDTAVYYCASRYGAYSGYDYWGQGTQVTVSS | high polyreactivity
QVQLVESGGGLVQAGGSLRLSCAASGSIFWYNAMGWYRQAPGKERELVAAIRWRGGSTYYADSVKGRFTISRDNAKNTVYLQMNSLKPEDTAVYYCAAQVYVSQLYTSYYYWGQGTQVTVSS | high polyreactivity
QVHLVESGGGLVQAGGSLRLSCAASGSIFYTNAMGWYSQAPGKERELVAAISYSGGRTYYADSVKGRFTISRDNAKNTVYIQMNSLKPEDTAVFYCNTVLRGGSTEAFDYWGQGTKVTVSS | high polyreactivity
QVQLVESGGGFVQAGGSLRLSCAASGFTFKAYAMGLYRQAPGKERELVATINRSGTGTYYADSVKGRFTISRDYAKNTVYLLMNSLKPEDTAVYYCNKRSHHNYYTYDYWGQGTQVTVSS | high polyreactivity
QVQLVESGGGLVHAGGSLRLSCAASGSIFYSNVMGWYRQAPGKERELVAAITRGGGTNYADSVKGRFTISRDNAKNTVYLQMNSLKPEDTAVYYCNRDPQKYRWIPRYDYWGQGTQVTVSS | low polyreactivity
QLQLVESGGGLVQAGGSLRLSCAATGFIFRYYVMGWYRQAPGKERELVAAITSGSTYADSVKGRFTISRDNAKNTVYLQMISLKPEDTAVYYCAAVKSQRGGPYSRGGKFGYWGQGTQVTVSS | high polyreactivity
QVQLVESGGGLVQAGGSLRLSCAASGRTLRKYAMGWYRQAPGKERELVAAITTSGGSTYYADSVKGRFTISRDNAKNTVYLQMNSLKPEDTAVYYCNAARYYAYIGDYWGQGTQVTVSS | high polyreactivity
QVQLVESGGGLVQAGGSLRLSCAASGSTLLANAMGWYRQAPGKERELVAASTYYADSVKGRFTISRDNAKNTVYLQMNSLKPEDTAVYYCAADTVRGGPDGIEYNYWGQGTQVTVSS | low polyreactivity
QVQLVESGGGLVQAGGSLRLSCAASGFIFTIYAMGWYRQAPGKERELVAAISSGGSTTYADSVKGRFTISRDNAKNTVYLQMNSLKPEDTAVYYCNADYQYNRYSRVVGGHYVGWYGYWGQGTQVTVSS | low polyreactivity
QVQLVESGGGLVQAGGSLRLSCAASGSTSPGYAMGWYRLEPGKERELVAAITFRGTRTYYADSVKGRFTISRDNAKKTVYLLMNSLKPEDTAVYYCNVVGYGPNRGRVDYWGQGTQVTVSS | high polyreactivity
QVQLVESGGGLVQAGGSLRLSCAACGSTFYVNTMGWYRQAPGKERELVAAITDSGVGTYADSVKGRFTISRDNAKNTVYLQMNSLKPEDTAVYYCNADGRYYDDETYDYWGQGTQVTVSS | low polyreactivity
QVQLVESGGGLVQAGGSLRLSCAASGFIFVPYAMGWYRQAPGKERELVAAITWSGASTYYADSVKGRFTISRDNAKNTVYLQMNRLKPEDTAVYYCAAENWLPQTGGYYWYDYWGQGTQVTVSS | high polyreactivity
QVQLVESGGGLVQAGGSLRLSCAASGRIFTAYAMGWYRQAPGKERELVAAISSGDSTYYADSVKGRFTISRDNAKNTVYLQMNSLKPEDTAVYYCATGVYPDFEYDSWGQGTQVTVSS | low polyreactivity
QVQLQESGGGLVQAGGSLRPSCAASGSISDRWWMGLYRQAPGKERESVAGINDGASTYYADSVKGRFTISCDNAKNTVYLQMNSLKPEDTAVYYCAVYVFITGCLNYWGQGTQVTVSS | high polyreactivity
QVQLVESGGGLVQAGGSIRLTCAASGSTFGKYAMGWYRQAPGKERELVARIDSGDGTYYADSLKGRFTISRDNAKNTVYLKMNSLKAEDTAVYYCAAGYGARRLTYFWPQYARYDYWGQGTQVTVSS | high polyreactivity

Sequence | polyreactivity (PSR sort gate)
QVQLVESGGGLVQAGGSLRLSCAATGIIYGYVMGWYRQAPGKERELVAVITRSGGSTYYADSVKGRFTISRDNAMNSVYLQMNSLKPEDTAVYYCAAQGIDILYDYWGQGTQVTVSS | low polyreactivity
QVQLVESGGGLVQAGGSLRLSCAASGRTFRSNGMGWYRQAPGKERQLVATISEGGGSTYYADSVKGRFTISRDNAKNTVYLQMNSLKPEDTAVYYCAATVYPSVYGENHYGYWGQGTQVTVSS | high polyreactivity
QVQLVESGGGLVQAGGSLRLSCAASGIIFAQYTMGWYRQAPGKERELVAAINRNGGSTYYADSVKGRFTISRDNAKNTVYLQMNSLKPEDTAVYYCNADALGFRYDYWGQGTQVTLSS | low polyreactivity
QVQLVESGGGLVQAGGSLRLSCAASGSTFYYFALGWYRQAPGKERELVAAISSGGTTNYADSVKGRFTISRDNAKNTVYLQINSLKPEDTAVYYCAARFRRVRFTHYDYWGQGTQVTVSS | high polyreactivity
QVQLVESGGGLVQAGGSLRLSCAASGRIFSYYGMGWYRQAPGKERELVAAITWRGSTTNYADSVKGRFTISRDNAKNTVYLQMNSLKPEDTAVYYCAPLHSAGYAYDYWGQGTQVTVSS | high polyreactivity
QVQLVESGGGLVQAGGSLRLSCAASGSTFINYAMGWYRQAPGKERELVAAYADSVKGRFTISRDNAKNTVYLQMNRLKPEDTAVYDCNAVTGECGQGTQVTVSS | low polyreactivity
QVQLVDSGGGLVQAGGSLRLSCAASGSIFQYYAMGWYRQAPGKEMELVAAITSVSSTSYADSVKGRFTISRDNAKNTVYLQMNSLKPEDTAVYYCDAAFRRGLLKMDYWGQGTQVTVSS | low polyreactivity
QVQLQESAGGMVQAGGSLRLRCSASGYISCDASMGWYRQAPGKERELAASITKGSRTNYADSVKGRFTIRDNAKNTVYLQMNSLKPEVTAVCYCAVTYPYWGDYTYWGQGTQVTVSS | low polyreactivity
IIQAGGSLRLSCAASGGTFFVYMGWYRQAPGKERELVADISGFGGGTYYADSVKGRFTISRDNAKNTVYLQMNSLKPEYTAVYYCATVVPTGIIRMYWGQGTQVTVSS | low polyreactivity
QVQLVESGGGLVQAGGSLRLSCAASGFIFVGYAMGWYRQAPGKERELVAAISWDGGSTDYADSVKGRFTISRDNAKNTVYLQMNSLKPEDTAVYYCAASYQYWGFWYEYWGQGTQVTVSS | high polyreactivity
QVQLVESGGGLVQAGGSLRLSCAASGSTFTSNAMGWYRQAPGKERELVAAISFSDASTYYADSVKGRFTISRDNAKNTVYLQMNSLKPEDTAVYYCAADSDQDAYDYWGQGTQVTVSS | low polyreactivity
QVHLVDSGGCLVQAGGSLRLSCAASGRTFSAYAMGWYRQAPGKEREVVAAISRSGGSTYYADSVKGRFTISRDNAKNTVYLPMNSLTPEDTAVYDCAVRWPSARIPVKLEDWGQGTQVTVSS | high polyreactivity
QVQLVDSGGGLVQAGGSLRLSCSASGYTFALYSMGWYRQAPGKERELVADINIGGASTYYADSVKGRFTISRDNAKNTVYLQMNSLKPEDTAVYYCAKEYYDGYFPTFDYDYWGQGTQVTVSS | low polyreactivity
QVQLVESGGGLVQAGGSLRLSCAASGRIFGYNAMGWYRQAPGKERELVAAITNGGSTNYADSVKGRFTISRDNAKNTVYLQMNSLKPEDTAVYYCVAYVGSTYSAPEYYWGQGTQVTVSS | low polyreactivity
QVQLVESGGGLVQAGGSLRLSCAPSGRIFSHYAMGWYRQAPGKERELVAAITSDGSTNYADSVKGRFTISRDNAKKTVYLQMNSLKPEDTAVYYSAKYVHIPDYYYLFGSYDYWGQGTQVTVSS | low polyreactivity
QVQLVESGGGLVQAGVSLRLSCAASGSTFRRYAMGWYRQAPGKAWEISTSDGSTYYADSVKGRFTISRDNAKNTVYLQMNSLKPEDTAVYYCAADGYRQLIEDITDDYWGQGTQVTVSS | low polyreactivity
QLQLVESGGGLVQAAGSLRLSSAASGSIFPDNAKGWYRQAPAKERELVATITSGGDTNYADSVKGRFTISRDNAKNTVYLQMNSLKPEDTAVYYCAADVYPDWLVKYDYWGQGTQVTVSS | low polyreactivity
QVQLVESGGGLVQAGGSLRLSCAASGYIFTRNAMGWYRQAPGKERELVAAISRSGGSTYYADSLKGRFTISRDNAKNTVYLQMNSLKPEDTSVYYCAAVDKGRPGRDYWGQGTQVTVSS | low polyreactivity
QVQLVESGGGLVQAGGSLRLSCAASGIFYFYAMGWYRQAPGKERELVAAITSSGGNTTYADSVKGRFTISRDNAKNTVYLQMNSLKPEDTAVYYCNAEAYSYGFDYWGQRTQVTVSS | low polyreactivity
QVQLVESGGGLVQAGGSLRLSCAASGITFYGYAMGWYRQAPGKERELVAAISKRGGSTYYADSVKGRFTISRDNAKNTVYLQMNSLKPEDTAVYYCNARPGKSQGWRYDYWGQGTQVTVSS | high polyreactivity
QVQLVESGGGLVQAGGSLRLSCAASGRTFYYNTMGWYRQAPGKERELVASITSGSSTYYADSVKGRFTISRDNAKNTVYLQMNSLKPEDTAVYYCAVYRRYSVKYHYGYWGQGTQVTVSS | high polyreactivity
